Measured values from patent publication US6808930B1, “Therapeutic agents” (priority 1997, dated 2004).

Experiments:
L1210 cells [1] = assay: Cell viability by trypan blue exclusion; assay type: cell-based, murine; details: L1210 cell line
Protocol: (§1) Remaining cells were analysed for DNA fragmentation.

A549 cells [2] = assay: DNA fragmentation by gel electrophoresis and FIGE; assay type: cell-based, human
Protocol: as §1

HRTEC cells [3] = assay: DNA fragmentation by gel electrophoresis and FIGE; assay type: cell-based, human; details: 4 mg/ml for 24 h
Protocol: as §1

L1210 cells [4] = assay: Cell surface binding of 125I-labelled protein, cell associated radioactivity; design: species or system murine; details: 30 min exposure to 2×10^6 cpm of 125I-labelled protein
Protocol: Cell surface binding of MAL was also quantitated as the cell associated radioactivity during the first 30 min after addition of ^125I-labelled MAL to the cells (FIG. 2B). […]

L1210 cells [5] = assay: Nuclear uptake of biotinylated protein, confocal microscopy; assay type: cell-based, murine
Protocol: (§2) To detect intracellular protein, the cells were fixed at various times after addition of 0.3 mg/ml of biotinylated MAL for 5 min in phosphate-buffered paraformaldehyde (4%) (B. Sander et al., Immunol. Rev. (1991) 119: 65-92) at room temperature, washed in PBS, and permeabilized with 0.1% saponin in PBS. FITC conjugated streptavidin (diluted 1:100 in 0.1% saponin) was added and the cells were incubated for 30 min at room temperature. The cells were washed twice in PBS-saponin and once in PBS, mounted on a glass slide and analysed in a Bio-Rad 1024 laser scanning confocal equipment (Bio Rad Laboratories, Hemel-Hempstead, UK) attached to a Nikon Diaphot inverted microscope.

A549 cells [6] = assay: as above; assay type: cell-based, human
Protocol: as §2

HRTEC cells [7] = assay: as above; assay type: cell-based, human; details: biotinylated MAL (1 mg/ml elsewhere in the source)
Protocol: as §2, with “To detect intracellular protein, the cells were fixed at various times after addition of 0.3 mg/ml of biotinylated MAL for 5 min in phosphate-buffered paraformaldehyde (4%) (B.” left out

[8] = system: L1210, A549 and HRTEC nuclei; assay: DNA fragmentation in isolated nuclei; assay type: cell-based
Protocol: Nuclei were purified from L1210, A549 and HRTEC cells and incubated with low concentrations of MAL (0.2 and 0.4 mg/ml). The formation of HMW and oligonucleosome length DNA fragments was examined.
A549, L1210 and HRTEC nuclei were isolated from homogenised cells. Pellet 1 from the homogenisation was washed twice in nuclei buffer for 20 min at 100×g and suspended in nuclei buffer for experiments. Rat liver nuclei was isolated.
A549, L1210 or HRTEC nuclei in suspension were placed in individual wells in a 24-well plate ([…]), mixed with MAL, α-lactalbumin, lactoferrin or BSA (100 μl in nucleus buffer), incubated at 37° C. for 1 hour (L1210,) or 2 hours (A549 and HRTEC), harvested by aspiration, analysed for DNA fragmentation as described above.

[9] = system: digitonin-permeabilized L1210, A549 and HRTEC cells; assay: Nuclear uptake of biotinylated protein in digitonin-permeabilized cells; assay type: cell-based; details: digitonin treated cells, biotinylated MAL
Protocol: Digitonin permeabilizes the plasma nembrane, but leaves the nuclear membrane intact. […] Human IgG and monomeric α-lactalbumin were used as controls.
The digitonin-permeabilized L1210 cells were preincubated with 50 μg/ml of WGA for 20 minutes, washed and exposed to biotinylated MAL. IgG and α-lactalbumin were used as controls (FIG. 7).
The cells pretreated with WGA were then washed by centrifugation in NTB at 320×g for 10 min before addition of protein.

[10] = system: digitonin-permeabilized cells; assay: DNA fragmentation in digitonin-permeabilized cells; assay type: cell-based; details: 0.4 mg/ml
Protocol: Briefly, 1×10^6 cells were incubated in 100 μl of nuclear transport buffer (NTB), with the addition of 1 μg/ml each of leupeptin, aprotinin, antipain, and 40 μg/ml of digitonin for 5 min at room temperature and washed by centrifugation at 320×g for 10 min in NTB. Biotinylated protein (5 μl, 5 mg/ml) was added to the cells in a total volume of 100 μl NTB supplemented with phosphcreatin, creatine phosphokinase and ATP, incubated for various time at RT and washed twice in NTB by centrifugation at 320×g for 10 min. The cells were treated with 0.2% Triton-X100 in NTB for 6 min and washed finally 1:100 dilution of fluorescein-conjugated strepatvidin was added for 30 min at RT and washed. The cells were then inspected by fluorescence microscopy in a Nikon Microphot (Japan) microscope or by laser scanning confocal microscopy in a BioRad MRC-1024 instrument.
When adding 0.4 mg/ml of MAL to digitonin-permeabilized cells, HMW DNA fragments were formed after 1 hour and oligonucleosomal fragments after 2 hours. […] IgG was not detected in isolated nuclei or in nuclei of digitonin-permabilized cells (FIG. 7a).

[11] = isolated nuclei from the three cell types, 0.2 and 0.4 mg/ml

B1: MAL: protein complex from human milk casein containing oligomeric forms of α-lactalbumin; the apoptosis-inducing fraction (protein, UniProt P00709 20-142, looked up)
Alpha-lactalbumin: KQFTKCELSQLLKDIDGYGGIALPELICTMFHTSGYDTQAIVENNESTEYGLFQISNKLWCKSSQVPQSRNICDISCDKFLDDDITDDIMCAKKILDIKGIDYWLAHKALCTEKLEQWLCEKL
modifications: oligomeric form from milk casein
notes: protein complex from human milk casein containing oligomeric forms of α-lactalbumin; the apoptosis-inducing fraction
sensitivity to MAL-induced apoptosis (L1210 cells [1]): highly sensitive
concentration at which HMW fragmentation was maximal (A549 cells [2]): 1.5 mg/mL
concentration at which no chromosomal DNA was seen (A549 cells [2]): 2.5 mg/mL
oligonucleosomal DNA fragmentation (A549 cells [2]): No oligonculeosomal fragmentation was detected
time at which HMW fragmentation was first detected (A549 cells [2]; 1.0 mg/ml): 6 h
HMW DNA fragmentation (HRTEC cells [3]): did not undergo HMW DNA fragmentation
cell surface binding, cell associated radioactivity (L1210 cells [4]): 23 000 cpm
cells with nuclear staining (L1210 cells [5]; 0.3 mg/ml biotinylated protein, after about 2 hours (first detected)): about 10%
cells with nuclear staining (L1210 cells [5]; 0.3 mg/ml, after 1 hour): 10%
cytoplasmic staining (L1210 cells [5]; biotinylated MAL): Cytoplasmic staining was not observed
incubation time after which cytoplasmic, granular fluorescence was detected (A549 cells [6]; FIG. 3): 3 h
incubation time at which nuclear accumulation was maximal (A549 cells [6]; FIG. 3): 24 h
cytoplasmic staining (A549 cells [6]; biotinylated MAL): granular fluorescence evenly distributed throughout the cell
cell nuclei stained brightly (A549 cells [6]; biotinylated MAL, longer incubation times (time not given)): About 15%
nuclear uptake (HRTEC cells [7]): Nuclear uptake was not observed
induction of DNA fragmentation in isolated nuclei ([8]; isolated nuclei): could induce DNA fragmentation
time after which formation of HMW DNA fragments was enhanced [8, 11]: one
time after which formation of oligonucleosome length fragments was enhanced [8, 11]: 2 h
time at which maximum nuclear levels were reached [9]: 20 min
time after which HMW DNA fragments were formed [10]: 1 h
time after which oligonucleosomal fragments were formed [10]: 2 h
